{"source": "the DeepSol protein solubility set", "data": [{"assay": "soluble on expression in E. coli; label from the status in PepcDB or PDB records", "values": [{"sequence": "MSLSKLKVSVFSKHLQFLQGEELAKATAAIGFDGVDLAVRKGGHVEPATVAKDLPALVAILRKNGLEVPMITTDIADTDTPFTEDLLKAASALGIRYYRFGAYKWSAEKPYAAQLEIMKPKLAKLAALNAKYQMCAMYHTHSGVGVVGASIWDLWYMMKDLDPKLMGMNYDVGHATIEGGLGGWIDSFKIAGNYVRGIAVKDFAWEKDPKGGQRSQWKPIGEGTVKFPQFYGMVAATDFAGPFQMHFEYPLGGANNGTRTLTVPKEEVHAAMKKDLDKTRAMLAQAGLEGHHHHHH", "soluble on expression in E. coli": "not soluble"}, {"sequence": "MSLSLRRIDHVSLRVRDVEEASRRWSAQFGLAVRERDGRRARLACDDEPYCLELLAAEAPGVEHVAYELRRSCTLEEAGRHFEGLGVPYEEHAGGLRVADPDGNRVLVLPYREPRERWVSHARAATDQIVGHPRRLGHVNFLTGRLSEGVEFYTRALGMRITDWLGEGGVWFHINADHHVMALVDKGYPHFHHLAFDVVDIGQMRVALDHLGRHGRWLGWGPVRHGIGGNIASYVRIVEEECFVELYCDMEQLEADHEVRRWPDNRFSSNTWGPLPPRSYFRFDEAAVASERESLEMLGHPLKEEVSSEGHHHHHH", "soluble on expression in E. coli": "soluble"}, {"sequence": "MSLSLSHFRITRFQFARDRVIGDSQVRADDVNVAALELVSESGEVGLGFIQTLFNPLPDQQEIESVFEHEVWPSLKGNRAIALVHRVNRPRGGNQRAYSLPFHEAVQVALWDLAAKEAGLPLHVLLGSRRNRVKAYASGLDFHLDDDAFVSLFSHAASIGYSAFKIKVGHRDFDRDLRRLELLKTCVPAGSKVMIDPNEAWTSKEALTKLVAIREAGHDLLWVEDPILRHDHDGLRTLRHAVTWTQINSGEYLDLQGKRLLLEAHAADILNVHGQVTDVMRIGWLAAELGIPISIGNTFLEAGVHMAVALPEVEWLEYSFQNFDHLVEQPIEIRDGYAYAPDRPGHGLVLSEKARGEWSRPRRLARSELGAAPENPRLPAKEGHHHHHH", "soluble on expression in E. coli": "soluble"}, {"sequence": "MSLSNKIVLTSPDRKTTRLLEKVRKEYDFKIDAYEATFDDAVELIRGKVAHREHWDPIIATGGATLGLLRDNLGRMPWVNIFPTEYDLVIALEQAKKTKKTIGLFNPGQIDTEAIKAVCSAIQIDAHIYRYNSWKEVLVQVEKAYQDGVEVAIGAGEKISSAVERKNIQYVSVTSGEYTIRRAFKYAQLLVDLKRNEKVSHEEGHHHHHH", "soluble on expression in E. coli": "not soluble"}, {"sequence": "MSLSPVPPPLVRVAPSLFLGSARAAGAEEQLARAGVTLCVNVSRQQPGPRAPGVAELRVPVFDDPAEDLLAHLEPTCAAMEAAVRAGGACLVYCKNGRSRSAAVCTAYLMRHRGLSLAKAFQVGGPLGGRCFERGVSSGDEFSGRGRLRDWDRHFREGRVSLMVKSARPVAEPNPGFWSQLQKYEEALQAQSEGHHHHHH", "soluble on expression in E. coli": "not soluble"}, {"sequence": "MSLSQDGLLGEVLSEGVLTLTLGRAPAHPLSRAMIAALHDALRRAMGDDHVHVLVIHGPGRIFCAGHDLKEIGRHRADPDEGRAFVTDLFEACSALMLDLAHCPKPTIALVEGIATAAGLQLMAACDLAYASPAARFCLPGVQNGGFCTTPAVAVSRVIGRRAVTEMALTGATYDADWALAAGLINRILPEAALATHVADLAGALAARNQAPLRRGLETLNRHLELPLEQAYALATPVMVEHFMDPGRRHLDWIDEGHHHHHH", "soluble on expression in E. coli": "soluble"}, {"sequence": "MSLSQRTYGYGRVSTDEQTTSQQLTAIREAGHKVSDNRFIVDEGVSGGVCAMERPAFRNLVENKLEKGDTLVIAKLDRLGRDNIDVQQVVQMLTDKGIKLFILDLPVADLSSPEGKLMLQMFATFAEFEKNRISERIRDKLKQLKQEGKALGRPTKNVYDDVQELKAQGISQRTIADKLNVSLSTVRRNWVDTKRSLEVVTESGEGHHHHHH", "soluble on expression in E. coli": "soluble"}, {"sequence": "MSLSSASSKRSVMTLFSNKDDIYCHQVKIVLAEKGVLYENAEVDLQALPEDLMELNPYGTVPTLVDRDLVLFNSRIIMEYLDERFPHPPLMQVYPVSRAKDRLLMLRIEQDWYPTLAKAENGTEKEKTSALKQLKEELLGIAPIFQQMPYFMNEEFGLVDCYVAPLLWKLKHLGVEFTGTGSKAIKAYMERVFTRDSFLQSVGEAAPKNLMDDKEGHHHHHH", "soluble on expression in E. coli": "soluble"}, {"sequence": "MSLSSDSGNSSGKTTIEWWNITTTEPAKKLWAQRAKEFEAAHPDVKIKIVTLENEAYKSKMTAQTASGKLPDIYHTWGGGVLEQQIDAGLVEDLTDRVSSWTDTYVPAALAAYRFDSRTYAVPFDIGAVGFWYNKALFKQAGIDTPPTTWSGFLDAVRSLKSAGITPIALAGKEKWPGMYYWAYLSMRVAGLDAMHKAATDADFTGDGFVKAGQHLKDLVALQPFQKGFLGAGYSTPTGEAAAMGNGKAAMELMGQWAPVVEKDAGKGLGKDLGFFSFPAVEGGKGALTEVFGGGGGHAVRKGAPEAAVEFLKFFGEKEFAGKLVKETGLIPVSKDARGALTDPNLTAVSDALNAATGFQLYLDQAYAPAVGQEINDSVAALVAGSKSPQQVTRSVTQVAKSEKSEGHHHHHH", "soluble on expression in E. coli": "not soluble"}, {"sequence": "MSLSSGEHEASRVLRERDYRWEGTEEEAYKAEGTHFSGARRQTLVGRPAGQEAPAFETRYFEVEPGGYTTLERHEHTHVVMVVRGHAEVVLDDRVEPLTPLDCVYIAPHAWHQIHATGANEPLGFLCIVDSDRDRPQRPDADDLARMCADPAVARRIRTEGHHHHHH", "soluble on expression in E. coli": "soluble"}, {"sequence": "MSLSSLEGQENSFTINSVDMKSLPDWTVQNGKNLTLQCFADVSTTSHVKPQHQMLFYKDDVLFYNISSMKSTESYFIPEVRIYDSGTYKCTVIVNNKEKTTAEYQLLVEGVPSPRVTLDKKEAIQGGIVRVNCSVPEEKAPIHFTIEKLELNEKMVKLKREKNSRDQNFVILEFPVEEQDRVLSFRCQARIISGIHMQTSESTKSELVTVTESFSTPKFHISPTGMIMEGAQLHIKCTIQVTHLAQEFPEIIIQKDKAIVAHNRHGNKAVYSVMAMVEHSGNYTCKVESSRISKVSSIVVNITELFSKPELESSFTHLDQGERLNLSCSIPGAPPANFTIQKEDTIVSQTQDFTKIASKSDSGTYICTAGIDKVVKKSNTVQIVVCEMLSEGHHHHHH", "soluble on expression in E. coli": "not soluble"}, {"sequence": "MSLSSPNLSFYYNECERFESFLKNHHLHLESFHPYLEKAFFEMVLNGGKRFRPKLFLAVLCALVGQKDYSNQQTEYFKIALSIECLHTYSLIHDDLPCMDNAALRRNHPTLHAKYDETTAVLIGDALNTYSFELLSNALLESHIIVELIKILSANGGIKGMILGQALDCYFENTPLNLEQLTFLHEHKTAKLISASLIMGLVASGIKDEELFKWLQAFGLKMGLCFQVLDDIIDVTQDEEESGKTTHLDSAKNSFVNLLGLERANNYAQTLKTEVLNDLDALKPAYPLLQENLNALLNTLFKGEGHHHHHH", "soluble on expression in E. coli": "soluble"}, {"sequence": "MSLSTLKREQIKKDLKDQEFDVVIIGGGITGAGIALDASERGMKVALVEMQDFAQGTSSRSTKLVHGGLRYLKQLQVGVVAETGRERAIVYENGPHVTTPERMLLPMHKGGSMGKFTTSIGLAMYDRLAGVKKAERKTMLNAKETLEKEPLVKKAGLKGGGSYVEYRTDDARLTIEVMKRAEEKGAKVINHTKSVHFTYDSNEKVNGIQVEDQISNETYPIKAKKVINASGPWVDEVRSGDYARNNKQLRLTKGVHIVIDQSKFPLGQAVYFDTEKDGRMIFAIPREGKAYVGTTDTFYDNNKTSPLANQEDRDYLIDAINYMFPDVNVADEDIESSWAGVRPLILEEGKDPSEISRKDEVWEGKSGLLTIAGGKLTGYRHMALEIVDLLSKRLKSEFGLKFDKCATKHLTISGGDVGGSANFDKFIEQKVEEAKSYQIDESTARHFASKYGSNAEELFKIAQTAQYQETGLPLDIYTELVYSIQNEMVYRPTDFFIRRTGKLYFKIDDVLNYKEQVIDVMAGLLGYTNIEKEAYTKELQIAIDEAQTGNHQPAVKELEHHHHHH", "soluble on expression in E. coli": "not soluble"}, {"sequence": "MSLSTMLVAEDLSAVGGISLSSALPVLTAMQYDVAALPTSLLSTHTSGYGTPAVVDLSTWLPQVFAHWTRAQLHFDQALIGYVGSVALCQQITTYLEQQTLSLLVVDPVLGDLGQLYQGFDQDYVAAMRQLIQQADVILPNTTEAALLTGAPYQVTPDLEVILPALQAQLKTGAHAVITDVQRADQIGCAWLDEAGHVQYCGARRLPGHYNGTGDTLAAVIAGLLGRGYPLAPTLARANQWLNMAVAETIAQNRTDDRQGEGHHHHHH", "soluble on expression in E. coli": "not soluble"}, {"sequence": "MSLSTYTTGELAKHVGVSVRTIQYYDQRGLLTPMTTAGGRREYTAQDIERLQLILVLKSMGLKLAAIKDILNSPNATDVLQLLLTEQVQRLRQDQAATTTQLKTVIAVQKALAVSGPFPLESIHDMDQLMTNQQREGHHHHHH", "soluble on expression in E. coli": "not soluble"}, {"sequence": "MSLSWADKYRPKNIDDVILNSEIRKQITEWIESWKEGIPKKRSLILYGSQGTGKTTTAYAIAGTFGVPVVEMNASDQRNRDSMRGTALMASLYGDLFVESAKRPSKVILIDEADNMFERGGDTGGIYELSKIIKNSANPIVITMNDIFEFRKKNYASDVISASLTIEMKQYGRKLDKNYNEFRRNIKARLIFILKNEGYTLPDQVVDRIIDRNMPDIRSMINDLEASAVSGTNISDEGHHHHHH", "soluble on expression in E. coli": "soluble"}, {"sequence": "MSLTAGKMNVKEKIKDIHFYRAVSDISRPIADSTHTISQIGFYIVELMTAEGVRGQGYVLSFHYSPGAMEGALRDVCSFISAGEYAVYDTVLARADWDREAEYFGNTGINNCAIAAVNLAMWDAWGHTCRQPVWKMLGANRRRIPVYGSGGWISYTDQELLEEVLDYKKRGFKAVKIKVGSGSIERDAERLAKCREALGDSVKIMMDANQGFNVPDALELARRASSMGIQWFEEPVVHTDYAGYQLLRNQCGIALAMGEREYDFEALKQLSVRNALDLWQPDIVRLGGVEAWRESAALAEAFGLPVLPHYYKDYDVPLLCTVRSPYGAESFDWIDGIIDNAMEIENGFASPREGDGWGFRFREECMTEVEGHHHHHH", "soluble on expression in E. coli": "soluble"}, {"sequence": "MSLTASPIVVFDLDGTLIDTAPDLINALNFILVREGMPAVPMAVARNMIGQGARRLLERGLELDGRVIAQDDVNRLTVDFIDYYAAHIADESRPFEGLEATLDELSESGYRFAVCTNKLEWLSKLLLDRLGLSPRFAAICGADTFGVAKPDPAILRETVAKAGGDLSAAIMVGDAGPDVGVARRAGVPVIGVEFGYTEVPIAELQPDLLVGHMRELPNAVGRLLPRREGHHHHHH", "soluble on expression in E. coli": "soluble"}, {"sequence": "MSLTDAETAVMPDRTNTSRDHAKRYVRHFLADFAKLDQEYPRTYPRMIVRGEGAYVIDEEGRRILDAGSHLGACQIGHGHPEVADRIHQQVRNIEFIALDAGISHVYAAALGERLAKMVLCDDPVFSFTNSGSESNELAFKIARQYHRRRGQPGRVKIFSRNGSYHGSTLATSAATGAAPFKEGFGPLPEGFIQGAQPSPGRCGHCGFNDACSLACLDDFERLIMAEGSETVAAVIAEPIAIPQAVKVPPPDYFVRLRKFCDDHGILLIIDEVVCGFGRTGRMFGAEHFGVHGDIVTFAKGLTSGYVPMGAVAVARHVEEVFKNAPLLHLNTYAGHPVACAAAMAVLDIMERERLVLHSARMEPILRRELQRLQNAVARVRYLSVIGLLSSVIVDISDRPDPDAVIRRVRNIAYDNGLLARVARDGALLSVHFYPPLVVAEQDIVAGVRALEIALRMIEGHHHHHH", "soluble on expression in E. coli": "not soluble"}, {"sequence": "MSLTEAPRVRLVGAEIFERPVEFRFPFRFGAARVTNAPQAFVRVRVEDASGRSTIGRSAEMMMPKWFDKNPSLSPEDNVGQLRASLRLAAEGLKSLQAETAFGLHVAAETEHHQAAATHGLPPLVASYGLALLDRAILDAVCRMMGACAAEAVRNNLLGVSGVAAPDLAGFDLTRFLSRLNVSSRLAVRHTIGLADVLTVADLGAMQRPADGLPQTLEDVIAAYGHRYFKIKVSGRPAEDIERLVAIAAILDDRVGDYRATLDGNEQFENIDLVCDLLDRIEEEPRLKRLRASMLFFEQPIARAEALSKPVVAAAQRMPLEIDESDGDMGAFLRARELGYAGISSKSCKGFYRALINRARVEKWNAEAGSSHYFMSAEDLTTQAGLALQQDLVLASLVGAGHVERNGHHYVDGMAGAPEGEQLAYLSHHGDLYEGAAGQTRLAIQAGEITFATALRSVGLGSSVDPDWAAMRPVSEGHHHHHH", "soluble on expression in E. coli": "not soluble"}]}]}
